According to patent US20240010721A1:
Several values for one entry are separate records, joined by “and”; a condition that tells them apart may be missing. Identical values can stand only once.

Columns and labels:
[1] = biological target: human ROR1 (hROR1) on cells (human) (UniProt Q01973); experiment: cell-based or functional assay
[2] = biological target: cynomolgus ROR1 (cynoROR1) on CHO-K1 cells (cynomolgus); experiment: FACS, CHO-K1-cynoROR1 cells; isotype control
hROR2ECD-his (human) = hROR2ECD-his (human) (UniProt Q01974); experiment: ELISA, plate coated with hROR2 ECD-his; isotype control
hROR2ECD-his (human), sequence (Q01974 34-403): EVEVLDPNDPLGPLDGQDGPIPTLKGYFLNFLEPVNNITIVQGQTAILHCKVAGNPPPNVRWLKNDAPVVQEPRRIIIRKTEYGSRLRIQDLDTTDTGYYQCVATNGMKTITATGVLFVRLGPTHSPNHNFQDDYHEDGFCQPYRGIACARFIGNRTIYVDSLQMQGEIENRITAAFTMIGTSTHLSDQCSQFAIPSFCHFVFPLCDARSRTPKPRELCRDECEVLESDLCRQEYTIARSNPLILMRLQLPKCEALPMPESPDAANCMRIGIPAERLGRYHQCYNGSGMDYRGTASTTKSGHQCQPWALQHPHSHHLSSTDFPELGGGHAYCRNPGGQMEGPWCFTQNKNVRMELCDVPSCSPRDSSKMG

[3] = biological target: human ROR1 (hROR1) on cells (human) (UniProt Q01973); experiment: FACS, HEK293T-hROR1 cells; isotype control
[4] = biological target: human ROR1 (hROR1) on cells (human) (UniProt Q01973); experiment: FACS, A549 cells; isotype control
[5] = biological target: Human ROR1-ECD-his (human) (UniProt Q01973); experiment: ELISA, plate coated with hROR1 ECD-his; isotype control
Human ROR1-ECD-his (human), sequence (Q01973 30-406): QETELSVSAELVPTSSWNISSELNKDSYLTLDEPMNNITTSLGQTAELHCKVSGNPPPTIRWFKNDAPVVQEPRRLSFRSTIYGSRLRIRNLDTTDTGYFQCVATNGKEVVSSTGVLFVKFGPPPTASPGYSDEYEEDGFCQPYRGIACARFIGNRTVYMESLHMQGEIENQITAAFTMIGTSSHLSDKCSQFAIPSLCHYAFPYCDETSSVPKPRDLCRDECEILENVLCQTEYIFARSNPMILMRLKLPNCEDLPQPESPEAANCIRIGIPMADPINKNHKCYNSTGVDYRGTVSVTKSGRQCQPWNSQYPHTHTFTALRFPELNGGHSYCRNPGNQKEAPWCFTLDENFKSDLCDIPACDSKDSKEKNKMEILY

human ROR1 (hROR1) on cells (human), sequence (Q01973 30-937): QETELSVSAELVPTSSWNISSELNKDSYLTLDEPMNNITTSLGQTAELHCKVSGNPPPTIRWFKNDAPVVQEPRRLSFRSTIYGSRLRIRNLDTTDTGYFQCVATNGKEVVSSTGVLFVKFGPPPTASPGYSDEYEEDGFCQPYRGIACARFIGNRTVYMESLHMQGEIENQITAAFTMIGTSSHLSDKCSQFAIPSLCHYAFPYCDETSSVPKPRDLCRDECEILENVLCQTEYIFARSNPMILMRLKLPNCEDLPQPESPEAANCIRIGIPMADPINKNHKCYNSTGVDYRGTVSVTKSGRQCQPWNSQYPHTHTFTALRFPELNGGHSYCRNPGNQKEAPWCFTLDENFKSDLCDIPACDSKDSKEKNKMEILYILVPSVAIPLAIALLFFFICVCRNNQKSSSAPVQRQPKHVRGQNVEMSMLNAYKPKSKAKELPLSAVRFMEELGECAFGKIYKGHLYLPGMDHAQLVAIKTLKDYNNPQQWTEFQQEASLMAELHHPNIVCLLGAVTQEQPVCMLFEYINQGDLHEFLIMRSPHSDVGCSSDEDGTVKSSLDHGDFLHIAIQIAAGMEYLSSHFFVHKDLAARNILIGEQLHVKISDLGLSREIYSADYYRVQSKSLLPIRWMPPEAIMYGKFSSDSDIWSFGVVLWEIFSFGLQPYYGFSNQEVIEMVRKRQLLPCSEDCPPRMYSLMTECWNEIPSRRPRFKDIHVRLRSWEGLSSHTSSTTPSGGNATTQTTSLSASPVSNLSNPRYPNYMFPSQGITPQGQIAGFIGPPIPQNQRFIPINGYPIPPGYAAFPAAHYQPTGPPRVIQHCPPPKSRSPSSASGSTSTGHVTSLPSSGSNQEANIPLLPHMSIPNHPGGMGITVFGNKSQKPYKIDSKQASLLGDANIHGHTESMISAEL

## human Iso IgG1 (CrownBio, Cat#: C0001-4) (antibody)
[1]
  ADCC Cytotoxicity (%), Donor 1, 1 nM (negative control): 9.89%
  ADCC Cytotoxicity (%), Donor 1, 10 nM (negative control): 10.4%
  ADCC Cytotoxicity (%), Donor 2, 1 nM (negative control): 10.8%
  ADCC Cytotoxicity (%), Donor 2, 10 nM (negative control): 10.5%
  ADCP, percentage of double-stained cells, 0.1 nM (control): 6.79% and 5.59%
  ADCP, percentage of double-stained cells, 10 nM (control): 6.53% and 7.46%
[2]
  MAX(MFI): 140 MFI
hROR2ECD-his (human)
  ELISA signal (called MFI): 0.041
[3]
  MAX(MFI): 226 MFI
[4]
  MAX(MFI): 119 MFI
[5]
  ELISA signal (called MFI): 0.036
